This is an account of results in publication PMC6309448 (Nature, 2018).

This assay concerns the target T1, outer membrane usher FimD (Escherichia coli, UniProt P30130 46-878).
T1 sequence: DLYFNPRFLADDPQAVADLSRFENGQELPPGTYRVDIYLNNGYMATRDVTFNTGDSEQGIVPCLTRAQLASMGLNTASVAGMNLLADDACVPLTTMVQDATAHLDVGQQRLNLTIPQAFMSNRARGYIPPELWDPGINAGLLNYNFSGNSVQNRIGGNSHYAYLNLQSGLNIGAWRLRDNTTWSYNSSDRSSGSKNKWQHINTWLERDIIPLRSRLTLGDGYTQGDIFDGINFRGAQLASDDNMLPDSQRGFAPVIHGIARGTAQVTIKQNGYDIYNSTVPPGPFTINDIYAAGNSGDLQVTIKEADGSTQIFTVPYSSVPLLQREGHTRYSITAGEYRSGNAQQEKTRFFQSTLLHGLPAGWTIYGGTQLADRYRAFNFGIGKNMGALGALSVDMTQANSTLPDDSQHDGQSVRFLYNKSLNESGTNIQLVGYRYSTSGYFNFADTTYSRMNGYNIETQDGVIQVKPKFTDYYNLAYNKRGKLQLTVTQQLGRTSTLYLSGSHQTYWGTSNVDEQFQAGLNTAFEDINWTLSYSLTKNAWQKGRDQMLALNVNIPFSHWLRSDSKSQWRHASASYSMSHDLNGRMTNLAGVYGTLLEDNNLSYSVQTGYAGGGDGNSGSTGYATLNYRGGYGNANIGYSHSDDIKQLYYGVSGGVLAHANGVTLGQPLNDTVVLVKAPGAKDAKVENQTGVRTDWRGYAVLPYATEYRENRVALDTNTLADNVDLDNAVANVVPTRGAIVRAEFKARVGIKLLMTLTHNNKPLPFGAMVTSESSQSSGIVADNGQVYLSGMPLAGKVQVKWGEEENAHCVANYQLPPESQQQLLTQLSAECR
Nature of the assay: cryo-EM structure.

B1: pilus subunit FimG (natural protein)
chain: ADVTITVNGKVVAKPCTVSTTNATVDLGDLYSFSLMSAGAASAWHDVALELTNCPVGTSRVTASFSGAADSTGYYKNQGTAQNIQLELQDDSGNTLNTGATKTVQVDDSSQSAHFPLQVRALTVNGGATQGTIQAVISITYTYS
As to B1, the binding result is recorded as “binds”.

B2: FimC chaperone (natural protein)
chain: GVALGATRVIYPAGQKQEQLAVTNNDENSTYLIQSWVENADGVKDGRFIVTPPLFAMKGKKENTLRILDATNNQLPQDRESLFWMNVKAIPSMDKSKLTENTLQLAIISRIKLYYRPAKLALPPDQAAEKLRFRRSANSLTLINPTPYYLTVTELNAGTRVLENALVPPMGESTVKLPSDAGSNITYRTINDYGALTPKMTGVME
As for B2, the binding result is reported as “binds”.
